Target: T1, human progastrin (full length, recombinant, produced in E. coli, tag removed) (human)
T1 construct: also called hPG; PG
T1 chain: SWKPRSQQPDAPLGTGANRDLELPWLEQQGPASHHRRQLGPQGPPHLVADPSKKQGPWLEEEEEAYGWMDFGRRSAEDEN
Experiment: epitope mapping (details not given)

B1: mAb3 (hybridoma 6B51311C10) (antibody, V domains shown)
VH: EVQLQQSGTVLARPGASVKMSCKASGYIFTSYWVHWVKQRPGQGLEWIGGFYPGNSDSRYNQKFKGKATLTAVTSASTAYMDLSSLTNEDSAVYFCTRRDSPQYWGQGTTLTVSS
VL: DVLMTQTPLSLPVSLGDQASISCRSSQSIVHSNGNTYLEWYLQKPGQSPKLLIYKVSNRFSGVPDRFSGSGSGTDFTLKISRLEAEDLGVYYCFQGSHVPFTFGGGTKLEIK
notes: Murine variable domains (mVH 3 / mVL 3) of the hybridoma antibody
binding result: binds

B2: mAb4 (hybridoma 20D2C3G2) (antibody, V domains shown)
VH: QVQLQQSGAELMKPGASVKISCKATGYTFSSSWIEWLKQRPGHGLEWIGEFLPGSGSTDYNEKFKGKATFTADTSSDTAYMLLSSLTSEDSAVYYCATDGNYDWFAYWGQGTLVTVSA
VL: DLVMTQTPLSLPVSLGDQASISCRSSQSLVHSSGVTYLHWYLQKPGQSPKLLIYKVSNRFSGVPDRFSGSGSGTDFTLKISRVEAEDLGVYFCSQSTHVPPTFGSGTKLEIK
notes: Murine variable domains (mVH 4 / mVL 4)
binding result: binds

B3: mAb16 (hybridoma 1E9D9B6) (antibody, V domains shown)
VH: QVQLQQSGAELVKPGASVKLSCKASGYTFTSYYMYWVKQRPGQGLEWIGEINPSNGGTNFNEKFKSKATLTVDKSSSTAYMQLSSLTSEDSAVYYCTRGGYYPFDYWGQGTTLTVSS
VL: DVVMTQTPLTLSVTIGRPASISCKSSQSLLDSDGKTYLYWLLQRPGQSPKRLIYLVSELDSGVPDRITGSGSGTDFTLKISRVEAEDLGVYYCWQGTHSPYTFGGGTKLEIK
notes: Murine variable domains (mVH 16 / mVL 16)
binding result: binds

B4: mAb13 (hybridoma 2C6C3C7) (antibody, V domains shown)
VH: EVQLVESGGGLVQPGGSLKLSCAASGFIFSSYGMSWVRQSPDRRLELVASINTFGDRTYYPDSVKGRFTISRDNAKNTLYLQMTSLKSEDTAIYYCARGTGTYWGQGTTLTVSS
VL: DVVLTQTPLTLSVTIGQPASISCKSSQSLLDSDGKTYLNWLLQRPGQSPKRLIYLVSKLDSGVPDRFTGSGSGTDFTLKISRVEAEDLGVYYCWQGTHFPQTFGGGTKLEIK
notes: Murine variable domains (mVH 13 / mVL 13)
binding result: binds
